Results as given in patent US12365904B2, “Thrombin binding circular aptamer and use thereof” (Hefei University of Technology, priority 2019, dated 2025).
Numbering of substitutions follows the chain as printed.

Legend:
[1] = target: thrombin (Homo sapiens, UniProt P00734); assay: Inhibition of thrombin-catalyzed conversion of fibrinogen to fibrin, absorbance at 350 nm; format: biochemical; details: for IC50: thrombin concentration of 0.1 nM, fibrinogen 2 μM
Protocol: (§1) Thrombin (0.1 nM) and fibrinogen (2 μM) were incubated with TBCA and Lib of different concentrations separately in buffer systems (total reaction volume of 100 μL) for a certain amount of time (till reaction equilibrium was reached), and the IC50 values of TBCA and Lib were calculated by fitting of the absorbance of the reaction system measured at 350 nm on a microplate reader.
The inhibition of thrombin-catalyzed conversion of fibrinogen to fibrin by TBCA and the random circular nucleic acid (Lib) was compared.
as §1, with “TBCA, M1, M2, M3, M4, M5, D1, D2” for “TBCA”, “D3” for “Lib”

[2] = Incubation in 50% serum at 37° C., electrophoresis, gray values of bands (biostability, half-life); format: in vitro ADME; details: 0.5 μM
Protocol: Incubation of 0.5 μM of TBCA and TBA each (nucleotide sequences thereof are shown in SEQ ID NO:1 and SEQ ID NO:2, respectively) was performed in 50% serum at a temperature of 37° C. Samples were taken for electrophoresis at 0 min, 1 min, 2 min, 5 min, 10 min, 30 min, 60 min (1 h), 120 min (2 h), 240 min (4 h), 480 min (8 h), 720 min (12 h) and 1440 min (24 h), respectively.

For “D3: Deletion variant of TBCA, SEQ ID NO:10 (DNA ATCTCGACTAGTCATAGGGGGCGCGAACATACGCGGTTGGTGTGGTTGGCTGACAA; DNA, backbone and methylation of C not given here; further chemistry not fully specified)”, the IC50 [1] was 0.13 nM.

For “TBA: Existing thrombin binding aptamer, 5′-GGTTGGTGTGGTTGG-3′, specifically targets α-thrombin [reference compound]”, the half-life [2] was “approximately 2 min” and the IC50 [1] was 1.3 nM.

B1: TBCA: Circular DNA aptamer, SEQ ID NO:1, 5′ end and 3′ end connected to form a ring (nucleic acid)
DNA: ATCTCGACTAGTCATAGGGGGCGCGAACATACGCGGTTGGTGTGGTTGGCTGACAATACTCGTTTTTGGTGTCTCGGAT
modifications: DNA, backbone and methylation of C not given here; circular: 5' and 3' ends joined to form a ring
With B1 the half-life [2] was “about 8 hours”, the half-life ([2]; listed as thrombin binding circular aptamer) was “up to 8 hours” and the “inhibition effect on thrombin relative to Argatroban” value ([1]; thrombin 0.1 nM, ratio of IC50 values, TBCA vs Argatroban) was 30 times. The “inhibition effect on thrombin relative to TBA” value ([1]; thrombin 0.1 nM, ratio of IC50 values, TBCA vs TBA) was 13 times and the IC50 [1] was 0.15 nM.

B2: M2: Substitution variant of TBCA, SEQ ID NO:4, N is a random nucleotide (nucleic acid)
DNA: B1 DNA with C8N, T9N, A10N, G11N, T12N, C13N, A14N
modifications: DNA, backbone, methylation of C and the base at N not given here; circular: 5' and 3' ends joined to form a ring
For B2, the IC50 [1] was 0.36 nM.

B3: M1: Substitution variant of TBCA, SEQ ID NO:3, N is a random nucleotide (nucleic acid)
DNA: B1 DNA with A1N, T2N, C3N, T4N, C5N, G6N, A7N
modifications: DNA, backbone, methylation of C and the base at N not given here; circular: 5' and 3' ends joined to form a ring
In the case of B3, the IC50 [1] is reported as 0.37 nM.

B4: M4: Substitution variant of TBCA, SEQ ID NO:6, N is a random nucleotide (nucleic acid)
DNA: B1 DNA with T64N, T65N, T66N, T67N, G68N, G69N, T70N
modifications: DNA, backbone, methylation of C and the base at N not given here; circular: 5' and 3' ends joined to form a ring
B4 showed an IC50 [1] of 0.1 nM.

B5: M5: Substitution variant of TBCA, SEQ ID NO:7, N is a random nucleotide (nucleic acid)
DNA: B1 DNA with G71N, T72N, C73N, T74N, C75N, G76N, G77N, A78N, T79N
modifications: DNA, backbone, methylation of C and the base at N not given here; circular: 5' and 3' ends joined to form a ring
B5 showed an IC50 [1] of 0.11 nM.

B6: M3: Substitution variant of TBCA, SEQ ID NO:5, N is a random nucleotide (nucleic acid)
DNA: B1 DNA with T57N, A58N, C59N, T60N, C61N, G62N, T63N
modifications: DNA, backbone, methylation of C and the base at N not given here; circular: 5' and 3' ends joined to form a ring
B6 showed an IC50 [1] of 0.18 nM.

B7: D1: Deletion variant of TBCA, SEQ ID NO:8 (nucleic acid)
DNA: ATCTCGACTAGTCATAGGGGGCGCGAACATACGCGGTTGGTGTGGTTGGCTGACAATACTCGTGTCTCGGAT
modifications: DNA, backbone and methylation of C not given here; further chemistry not fully specified
B7 showed an IC50 [1] of 0.15 nM.

B8: D2: Deletion variant of TBCA, SEQ ID NO:9 (nucleic acid)
DNA: ATCTCGACTAGTCATAGGGGGCGCGAACATACGCGGTTGGTGTGGTTGGCTGACAATACTCGT
modifications: DNA, backbone and methylation of C not given here; further chemistry not fully specified
B8 gave an IC50 [1] of 0.09 nM.
